Results from patent publication US20140294898A1 (published 2014).
Positions of bridges follow the written chain, without caps; N, C: chain ends. Non-standard residues stand in square brackets, D forms with d. Phe(4-CF3) = N[C@@H](Cc1ccc(C(F)(F)F)cc1)C(=O)O; Phe(4-tBu) = CC(C)(C)c1ccc(C[C@H](N)C(=O)O)cc1; Bip = N[C@@H](Cc1ccc(-c2ccccc2)cc1)C(=O)O; Oic = O=C(O)[C@@H]1C[C@@H]2CCCC[C@@H]2N1; Phe(4-Br) = N[C@@H](Cc1ccc(Br)cc1)C(=O)O; Hyp = O=C(O)[C@@H]1C[C@@H](O)CN1; 3Pal = N[C@@H](Cc1cccnc1)C(=O)O; 4Pal = N[C@@H](Cc1ccncc1)C(=O)O; NMeNle = CCCC[C@H](NC)C(=O)O; Pro(4-NH2) = 4-aminoproline; Pro(4-Ph) = 4-phenylproline; Pip = O=C(O)[C@@H]1CCCCN1; NMeA = CN[C@@H](C)C(=O)O; Sar = CNCC(=O)O

B1: Compound No. 39 (peptide)
peptide: {CH2CO}-[4Pal][NMeA]NPHL[Sar]WSW[NMeNle][NMeNle]RCG-NH2
modifications: thioether N-14
SMILES: CCCC[C@H]1C(=O)N(C)[C@@H](CCCC)C(=O)N[C@@H](CCCNC(=N)N)C(=O)N[C@H](C(=O)NCC(N)=O)CSCC(=O)N[C@@H](Cc2ccncc2)C(=O)N(C)[C@@H](C)C(=O)N[C@@H](CC(N)=O)C(=O)N2CCC[C@H]2C(=O)N[C@@H](Cc2c[nH]cn2)C(=O)N[C@@H](CC(C)C)C(=O)N(C)CC(=O)N[C@@H](Cc2c[nH]c3ccccc23)C(=O)N[C@@H](CO)C(=O)N[C@@H](Cc2c[nH]c3ccccc23)C(=O)N1C
B2: Compound No. 48 (peptide)
peptide: {CH2CO}-F[NMeA]N[Pro(4-NH2)]HL[Sar]WSW[NMeNle][NMeNle]RCG-NH2
modifications: thioether N-14
B3: Compound No. 46 (peptide)
peptide: {CH2CO}-F[NMeA]N[Pro(4-Ph)]HL[Sar]WSW[NMeNle][NMeNle]RCG-NH2
modifications: thioether N-14
B4: Compound No. 38 (peptide)
peptide: {CH2CO}-[3Pal][NMeA]NPHL[Sar]WSW[NMeNle][NMeNle]RCG-NH2
modifications: thioether N-14
SMILES: CCCC[C@H]1C(=O)N(C)[C@@H](CCCC)C(=O)N[C@@H](CCCNC(=N)N)C(=O)N[C@H](C(=O)NCC(N)=O)CSCC(=O)N[C@@H](Cc2cccnc2)C(=O)N(C)[C@@H](C)C(=O)N[C@@H](CC(N)=O)C(=O)N2CCC[C@H]2C(=O)N[C@@H](Cc2c[nH]cn2)C(=O)N[C@@H](CC(C)C)C(=O)N(C)CC(=O)N[C@@H](Cc2c[nH]c3ccccc23)C(=O)N[C@@H](CO)C(=O)N[C@@H](Cc2c[nH]c3ccccc23)C(=O)N1C
B5: Compound No. 47 (peptide)
peptide: {CH2CO}-F[NMeA]N[Hyp]HL[Sar]WSW[NMeNle][NMeNle]RCG-NH2
modifications: thioether N-14
SMILES: CCCC[C@H]1C(=O)N(C)[C@@H](CCCC)C(=O)N[C@@H](CCCNC(=N)N)C(=O)N[C@H](C(=O)NCC(N)=O)CSCC(=O)N[C@@H](Cc2ccccc2)C(=O)N(C)[C@@H](C)C(=O)N[C@@H](CC(N)=O)C(=O)N2C[C@H](O)C[C@H]2C(=O)N[C@@H](Cc2c[nH]cn2)C(=O)N[C@@H](CC(C)C)C(=O)N(C)CC(=O)N[C@@H](Cc2c[nH]c3ccccc23)C(=O)N[C@@H](CO)C(=O)N[C@@H](Cc2c[nH]c3ccccc23)C(=O)N1C
B6: Compound No. 28 (peptide)
peptide: {CH2CO}-[Bip][NMeA]NPHL[Sar]WSW[NMeNle][NMeNle]RCG-NH2
modifications: thioether N-14
SMILES: CCCC[C@H]1C(=O)N(C)[C@@H](CCCC)C(=O)N[C@@H](CCCNC(=N)N)C(=O)N[C@H](C(=O)NCC(N)=O)CSCC(=O)N[C@@H](Cc2ccc(-c3ccccc3)cc2)C(=O)N(C)[C@@H](C)C(=O)N[C@@H](CC(N)=O)C(=O)N2CCC[C@H]2C(=O)N[C@@H](Cc2c[nH]cn2)C(=O)N[C@@H](CC(C)C)C(=O)N(C)CC(=O)N[C@@H](Cc2c[nH]c3ccccc23)C(=O)N[C@@H](CO)C(=O)N[C@@H](Cc2c[nH]c3ccccc23)C(=O)N1C
B7: Compound No. 44 (peptide)
peptide: {CH2CO}-F[NMeA]N[Pip]HL[Sar]WSW[NMeNle][NMeNle]RCG-NH2
modifications: thioether N-14
SMILES: CCCC[C@H]1C(=O)N(C)[C@@H](CCCC)C(=O)N[C@@H](CCCNC(=N)N)C(=O)N[C@H](C(=O)NCC(N)=O)CSCC(=O)N[C@@H](Cc2ccccc2)C(=O)N(C)[C@@H](C)C(=O)N[C@@H](CC(N)=O)C(=O)N2CCCC[C@H]2C(=O)N[C@@H](Cc2c[nH]cn2)C(=O)N[C@@H](CC(C)C)C(=O)N(C)CC(=O)N[C@@H](Cc2c[nH]c3ccccc23)C(=O)N[C@@H](CO)C(=O)N[C@@H](Cc2c[nH]c3ccccc23)C(=O)N1C
B8: Compound No. 37 (peptide)
peptide: {CH2CO}-[Phe(4-tBu)][NMeA]NPHL[Sar]WSW[NMeNle][NMeNle]RCG-NH2
modifications: thioether N-14
SMILES: CCCC[C@H]1C(=O)N(C)[C@@H](CCCC)C(=O)N[C@@H](CCCNC(=N)N)C(=O)N[C@H](C(=O)NCC(N)=O)CSCC(=O)N[C@@H](Cc2ccc(C(C)(C)C)cc2)C(=O)N(C)[C@@H](C)C(=O)N[C@@H](CC(N)=O)C(=O)N2CCC[C@H]2C(=O)N[C@@H](Cc2c[nH]cn2)C(=O)N[C@@H](CC(C)C)C(=O)N(C)CC(=O)N[C@@H](Cc2c[nH]c3ccccc23)C(=O)N[C@@H](CO)C(=O)N[C@@H](Cc2c[nH]c3ccccc23)C(=O)N1C
B9: Compound No. 35 (peptide)
peptide: {CH2CO}-[Phe(4-CF3)][NMeA]NPHL[Sar]WSW[NMeNle][NMeNle]RCG-NH2
modifications: thioether N-14
SMILES: CCCC[C@H]1C(=O)N(C)[C@@H](CCCC)C(=O)N[C@@H](CCCNC(=N)N)C(=O)N[C@H](C(=O)NCC(N)=O)CSCC(=O)N[C@@H](Cc2ccc(C(F)(F)F)cc2)C(=O)N(C)[C@@H](C)C(=O)N[C@@H](CC(N)=O)C(=O)N2CCC[C@H]2C(=O)N[C@@H](Cc2c[nH]cn2)C(=O)N[C@@H](CC(C)C)C(=O)N(C)CC(=O)N[C@@H](Cc2c[nH]c3ccccc23)C(=O)N[C@@H](CO)C(=O)N[C@@H](Cc2c[nH]c3ccccc23)C(=O)N1C
B10: Compound No. 45 (peptide)
peptide: {CH2CO}-F[NMeA]N[Oic]HL[Sar]WSW[NMeNle][NMeNle]RCG-NH2
modifications: thioether N-14
SMILES: CCCC[C@H]1C(=O)N(C)[C@@H](CCCC)C(=O)N[C@@H](CCCNC(=N)N)C(=O)N[C@H](C(=O)NCC(N)=O)CSCC(=O)N[C@@H](Cc2ccccc2)C(=O)N(C)[C@@H](C)C(=O)N[C@@H](CC(N)=O)C(=O)N2[C@@H](C[C@@H]3CCCC[C@@H]32)C(=O)N[C@@H](Cc2c[nH]cn2)C(=O)N[C@@H](CC(C)C)C(=O)N(C)CC(=O)N[C@@H](Cc2c[nH]c3ccccc23)C(=O)N[C@@H](CO)C(=O)N[C@@H](Cc2c[nH]c3ccccc23)C(=O)N1C
B11: Compound No. 34 (peptide)
peptide: {CH2CO}-[Phe(4-Br)][NMeA]NPHL[Sar]WSW[NMeNle][NMeNle]RCG-NH2
modifications: thioether N-14
SMILES: CCCC[C@H]1C(=O)N(C)[C@@H](CCCC)C(=O)N[C@@H](CCCNC(=N)N)C(=O)N[C@H](C(=O)NCC(N)=O)CSCC(=O)N[C@@H](Cc2ccc(Br)cc2)C(=O)N(C)[C@@H](C)C(=O)N[C@@H](CC(N)=O)C(=O)N2CCC[C@H]2C(=O)N[C@@H](Cc2c[nH]cn2)C(=O)N[C@@H](CC(C)C)C(=O)N(C)CC(=O)N[C@@H](Cc2c[nH]c3ccccc23)C(=O)N[C@@H](CO)C(=O)N[C@@H](Cc2c[nH]c3ccccc23)C(=O)N1C

Target: T1, hPDL1(19-239)-TVMV-His (human, UniProt Q9NZQ7 19-239)
T1 construct: The text says amino acids 18-239, the construct name says 19-239; Expressed in HEK293T cells; Used at 10 nM final in the HTRF assay; also called PD-L1-His; PD-L1-TVMV-His
Assay: HTRF competition, PD-1-Ig binding to PD-L1-His

T1 sequence (Q9NZQ7 other isoform, or with tags, fused parts or gaps limits assumed): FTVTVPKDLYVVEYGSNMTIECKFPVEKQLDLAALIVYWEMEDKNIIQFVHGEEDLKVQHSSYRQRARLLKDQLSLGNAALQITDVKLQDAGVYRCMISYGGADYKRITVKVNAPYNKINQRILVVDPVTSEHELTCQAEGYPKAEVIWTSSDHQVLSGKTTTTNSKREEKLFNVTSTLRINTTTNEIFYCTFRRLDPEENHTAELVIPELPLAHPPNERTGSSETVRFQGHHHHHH

Binder	IC50 [nM]
B1	33
B2	40
B3	873
B4	46
B5	27
B6	117
B7	34
B8	1270
B9	56
B10	105
B11	4
